The values below come from PMC7187929 (Biochimica et biophysica acta. Bioenergetics, 2017).

Data set [1] deals with HtSH (soluble NAD+-reducing [NiFe]-hydrogenase, HoxFUYH) (Hydrogenophilus thermoluteolus, UniProt A0A077L6X8). As to the kind of experiment: fluorometric FMN determination in purified protein. Type of data set: binding. The following applies: bound cofactor content of purified enzyme.
Data set [2] has as its target HoxFU module of HtSH (Hydrogenophilus thermoluteolus TH-1T) (Hydrogenophilus thermoluteolus TH-1T). In words: co-purification.
Substrate in data set [3]: NC(=O)c1ccc[n+]([C@@H]2O[C@H](COP(=O)(O)OP(=O)(O)OC[C@H]3O[C@@H](n4cnc5c(N)ncnc54)[C@H](O)[C@@H]3O)[C@@H](O)[C@H]2O)c1
As to the kind of experiment: purified protein. The settings on record: H2 as electron donor, 50 °C, kcat at pH 6.5.

Substrate in data set [4]: NC(=O)C1=CN([C@@H]2O[C@H](COP(=O)(O)OP(=O)(O)OC[C@H]3O[C@@H](n4cnc5c(N)ncnc54)[C@H](O)[C@@H]3O)[C@@H](O)[C@H]2O)C=CC1
In words: purified protein. The following applies: benzyl viologen as electron acceptor, 50 °C.

Sequence of HtSH (soluble NAD+-reducing [NiFe]-hydrogenase, HoxFUYH) (A0A077L885 1-242 partner, one chain of several): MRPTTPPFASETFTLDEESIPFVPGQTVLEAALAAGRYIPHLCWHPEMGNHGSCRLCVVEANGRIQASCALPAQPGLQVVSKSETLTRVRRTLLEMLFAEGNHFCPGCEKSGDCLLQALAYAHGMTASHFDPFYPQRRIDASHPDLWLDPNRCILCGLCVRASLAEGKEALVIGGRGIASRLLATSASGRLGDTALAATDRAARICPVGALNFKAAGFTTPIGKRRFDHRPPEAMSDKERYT
Sequence of HtSH (soluble NAD+-reducing [NiFe]-hydrogenase, HoxFUYH) (A0A077L7R5 1-189 partner, one chain of several): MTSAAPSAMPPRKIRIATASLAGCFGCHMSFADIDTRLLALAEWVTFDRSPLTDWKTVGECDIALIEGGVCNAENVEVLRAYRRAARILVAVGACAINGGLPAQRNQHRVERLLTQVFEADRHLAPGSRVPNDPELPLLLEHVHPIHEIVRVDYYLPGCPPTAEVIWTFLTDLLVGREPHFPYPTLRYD
Sequence of HtSH (soluble NAD+-reducing [NiFe]-hydrogenase, HoxFUYH) (A0A077LAI5 1-468 partner, one chain of several): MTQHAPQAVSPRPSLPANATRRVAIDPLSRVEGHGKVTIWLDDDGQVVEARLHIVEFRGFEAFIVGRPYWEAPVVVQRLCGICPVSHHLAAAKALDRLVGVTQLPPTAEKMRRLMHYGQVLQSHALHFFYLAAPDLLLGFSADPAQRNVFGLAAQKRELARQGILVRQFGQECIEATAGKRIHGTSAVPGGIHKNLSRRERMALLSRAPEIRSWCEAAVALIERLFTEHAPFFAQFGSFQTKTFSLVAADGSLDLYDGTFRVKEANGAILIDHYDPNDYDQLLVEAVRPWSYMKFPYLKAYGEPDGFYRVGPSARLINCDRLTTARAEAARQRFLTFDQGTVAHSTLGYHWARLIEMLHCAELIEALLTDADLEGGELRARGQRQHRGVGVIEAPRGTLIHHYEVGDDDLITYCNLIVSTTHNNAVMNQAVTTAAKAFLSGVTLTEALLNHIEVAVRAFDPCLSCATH

For the molecule `Cc1cc2nc3c(=O)[nH]c(=O)nc-3n(C[C@H](O)[C@H](O)[C@H](O)COP(=O)(O)O)c2cc1C` [FMN], in data set [1], the “FMN per SH tetramer” value came out at 1.07 mol/mol. Turning to “HoxYH module of HtSH (Hydrogenophilus thermoluteolus TH-1T) (from UniProt A0A077L7R5 1-189) (complex)”, the stoichiometry N – broadly, the number of molecules, sites or subunits per partner or assembly – in data set [2] is 1.

B1: HtSH (soluble NAD+-reducing [NiFe]-hydrogenase, HoxFUYH) (Hydrogenophilus thermoluteolus) (protein)
chain: MTTERQRTAPGLLAALHQARSRFGRPLDAQALAELSTAFSLPPGEIAATASFYHFFQTPPARYQIHFVDHVVDHHAGVAALCNHLCAAFAIQPGQRTADARLFVGWTACAGLSDQAPAALINGRPMPRLDAARIDALIEKIQAQIPMDQWPTEWFAVTNAIHRHGPLLTWLDTTPAEAVFEHPTAHDPDAILQAVTDAGLRGRGGAGFPTATKWRFCRENADPERFLICNADEGEPGTFKDRVLLTRYPEHLFAGMILAARAIGADKAILYLRYEYQYLLPQLEAARERIASAQATVPQAERVTLEIALGAGAYVCGEESALIESLEGKPGRPRVRPPYPVTQGYLGHPTVVNNVETLVAVAAIVGNGAAWWRALGTPDSSGPKLFCVSGDVAQPGLYEFPYGVALGDVVTAARPLGTRYAVQVSGPSGTLLPATPEQLARPLAFEALPCNGTVMVFDVRRDPVAIVHHFARFFAHESCGFCTPCRVGTQLIAKTFEKIAAGYATRFDLERLAPALEAMRLASNCGFGLSAGNPVRDLIAHFRQQLEAQLQPHDFIPAFSLDAELAATRRLTGRDDPHAHLAQFEQPEVTR
Turning to B1, the figures for the Km in data set [3] and in data set [4] were 469 µM and 1200 µM, respectively.
